Data from US7592003B2, “Regulation of toll-like receptors on stem cells” (Oklahoma Medical Research Foundation, priority 2005, dated 2009).

Tested on: LKS^− cells
Assay: Serum-free culture of LKS- myeloid/erythroid progenitors (and CMP, GMP subsets), F4/80 by flow cytometry
Assay type: cell-based, mouse
Settings: 72 h, no other growth factors
Method: FIGS. 4A-D—Activation of TLRs through MyD88 bypasses normal differentiation cues and drives monocytes/macrophages differentiation of myeloid progenitors. (FIG. 4A) Sorted LKS^− cells from C57BL/6 or MyD88^−/− mice were stimulated with medium alone, LPS (10 μg/ml), Pam3CSK4 (1 μg/ml), M-CSF, or GM-CSF. After 72 h in culture, cells were analyzed by flow cytometry for expression of F4/80. Open histograms depict staining with the isotype matched Ab for F4/80. Percentages given in each histogram indicate the frequencies of F4/80^+ cells and the results are representative of three independent experiments. (FIG. 4B) The bar graph depicts yields, i.e., numbers of F4/80^+ cell recovered per input progenitor. Data represent mean values with standard deviations from triplicate cultures and the results are representative of three independent experiments (*P<0.005). […] After 72 h in culture, cells were analyzed by flow cytometry for expression of F4/80. […] After 24 or 48 h in culture, cells were analyzed by flow cytometry for expression of F4/80. […]
FIG. 13—TLR stimulation causes rapid production of F4/80^+ cells from LKS^− cells. […] Stimulated wells were analyzed after 24 h or 48 h of culture by flow cytometry for expression of F4/80. […]

B1: GM-CSF: Recombinant mouse GM-CSF, colony stimulating factor, 20 ng/ml (protein, UniProt P01587 18-141, looked up)
Granulocyte-macrophage …: APTRSPITVTRPWKHVEAIKEALNLLDDMPVTLNEEVEVVSNEFSFKKLTCVQTRLKIFEQGLRGNFTKLKGALNMTASYYQTYCPPTPETDCETQVTTYADFIDSLKTFLTDIPFECKKPGQK
Acquisition of F4/80 by LKS- cells: only a subset of LKS^− myeloid progenitors responded
